Results taken from the nanobody polyreactivity screen of Harvey et al. (2022).

Experiment: yeast display, Sf9 membrane polyspecificity reagent, FACS + sequencing; frameworks hold sequencing errors
Procedure, shortened: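 Nanobodies came from a synthetic yeast display library in Saccharomyces cerevisiae BJ5465, induced with galactose for 36–48 hours and stained for 1 hour at 4 °C with 10% biotinylated, detergent-solubilized Sf9 membrane reagent. Cells were enriched on streptavidin microbeads and then FACS-sorted, with low and high (top ~1%) gates set on anti-HA fluorescence for expression and streptavidin fluorescence for reagent binding. Each polyreactivity label reflects the gate a clone came from. Genes were amplified by colony PCR, sequenced by MiSeq 2 × 250 and filtered by CDR length.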

## QVQLVESGGGLVQAGGSLRLSCAASGRTFYRYAMGWYRQAPGKERELVAVITSGSRTKYADSVKGRFTISRDNAKNTVYLQMNSLKPEDTAVYYCAARVLALEGKSSGEYWGQGTQVTVSS
  polyreactivity (PSR sort gate): high polyreactivity

## QVQLVESCGGLVQAGGSLRLSCAASGFIFRSYAMGWYRKAHGKERELVAAISRSGGSTYYADSVKGRFTISRDNAKNTVYLQMNSLKPEDTAVYYCATDGGRSTARGFGHWGQGTQVTVSS
  polyreactivity (PSR sort gate): high polyreactivity

## QVQLVESGGGLVQAGGSLRLSCAASGSIYGGYAMGWYRQAPGKEREFVAAISRSGSSTYYADSVKGRFTISRDNAKNTVYLQMNSLKPEDTAVYSCAARYAGKAPGYRRYDYWGQGTQVTVSS
  polyreactivity (PSR sort gate): high polyreactivity

## QVQLVESGGGLVQAGGSLRLSCAASGFTFGSNAMGWYRQAPGKERELVAAISSRGGRTYYADSVKGRFTISRDNAKNTVYLQMNSLKPEDTAVYYCNADATVAWREQEYEYWGQGTQVTVSS
  polyreactivity (PSR sort gate): high polyreactivity

## HVQLVESGGGLVQAGGSLRLSCAASGFIFRYYAMGWYRQAPGKERELVAAISWSGTPTFYADSVKGRFTISRDNAKNTVYLQMNSLKPEDTAVYYCAAETTGYDSYIQYEYWGQGTQVTVSS
  polyreactivity (PSR sort gate): high polyreactivity

## QVQLVESGGGLVQAGGSLSLSCAASGLTFANYVMGWYRQEPGKERELVAAISRSGGSTYYADSVKGRFTISRDNAKNTVYLQMNSLKPEDPAVYYCAAAAWDPKGSRYDYWGQGPQVTVSS
  polyreactivity (PSR sort gate): low polyreactivity

## QDQLVESGAGLVQAGGSLRLSCAASGRIFPGYAMGWYRQAPGKERELVAGITWRTARTYYADSVKGRFTISRDNAKNTVYLQMNSLKPEDTAVYYCAAKYARYGRHVIFDYWGQGTQVTVSS
  polyreactivity (PSR sort gate): high polyreactivity

## QVQLVESGGGLVQAGGSLRLSCAASGSIFYVYAMGWYRQAPGKERELVASISWGDSSTYYADSVKGRFTISRDNAKNTVYLQMNSLKPDDTAVYYCAADEYRQYALYDYWGQGTQVTVSS
  polyreactivity (PSR sort gate): low polyreactivity

## QVQLVESGGGLVQAGGSLSLSCAASGRTFVYYAMGWYRQAPGKERELVAAISSSGGRTYYADSVKGRFTISRDNAKNTVYLQMNSLKPEDTAVYYCAARRLSPIYDSWGQGTQVTVSS
  polyreactivity (PSR sort gate): high polyreactivity

## QVQLVESGGGLVQAGGSLRLSCAASGSTFTYNARGWYRQAPGKERELVAVIRPGGTTNYADSVKGRFTISRDNAKNTVYLQMNSLKPEDTAVYYCAKFFGNYSIYDYWGQGTQVTVSS
  polyreactivity (PSR sort gate): low polyreactivity

## QVQIEESGGGLVQAGGSLRLTCAASGRIFYLNAMGWYRQAPGKERELVAGITNSTTGTYYADSVKGRFTISRDNAKNSVYLQMNSLKPEDTAVFYCNTDVAYEEPVETYDYWGQGTQVTVSS
  polyreactivity (PSR sort gate): low polyreactivity

## QVQIVESGGGLVQAGGSLRLSCASSGSTFTHYAMGWYRQAPGKERELVAGISWGGSSTYYADSVKGRFTISRDNAKNTVYLQMNSLKPEDTAVYYCAAGRRGSYPGGYGYWGQGTQVTVSS
  polyreactivity (PSR sort gate): low polyreactivity

## QVQLVESGGGLVQAGGSLRLSCAASGSTFWPYALGWYRQAPVKERELVAAITNSGGSTYYADSVKGRFTISRDNAKNTVYLQMNSLKPEDTAVYYCAVRGVIYSYTPVNSYVFWGQGTQVTVSS
  polyreactivity (PSR sort gate): low polyreactivity

## QVQLVESGGGLVQAGGSLRLSCAASGRTFPLYAMGWYRQAPGKERELVAAISLSGGRTYYADSVKGRFTISRDNAKNTVYLQMNSLKPEDTAVYYCAARGTLSAQVGIRRYDYWGQGTQVTVSS
  polyreactivity (PSR sort gate): low polyreactivity

## QVQLVESGGGLVQAGGSLRLSCAASGFIFRVYAMGWYRQAPGKERELVAAITRAGNTYYADSVKGRFTISRDNAKNTVYLQMNSLKPEDTAVYYCNNYHYWASPMNYWGQGTQVTVSS
  polyreactivity (PSR sort gate): high polyreactivity

## QVQLVESGGGLVQAGGSLRLSCAAYGSTFSLNTMGWYRQAPGKERELVAAITSGGSTNYADSVKGRFTISRDNAKNTVYLQMNSLKPEDTSVYYCAATPGRGGGYNYWGQGTQVTVSS
  polyreactivity (PSR sort gate): low polyreactivity

## QVQLVESGGGLVQAGGSLRLSCAASGYTLSVNAMGWYRQAPGKERELVATIDFGGGSTYYADSVKGRFTISRDNAKNTVYLKMNSLKPEDTAVYYCNTEWTSLSKSSLGGRYDHWGQGTQVTVSS
  polyreactivity (PSR sort gate): low polyreactivity

## QFQLVESGGRLVQAGGSLRLSCAASGSIFYLNAIGSYRQAPGKERELVAAISRSGGRTYYADSVKGRFTISRDNAKNTVYLQMNSLIPEDTAVYYCAADVQAQGAYRGGYWGQGTQVTVSS
  polyreactivity (PSR sort gate): high polyreactivity

## QVQLVESGGGLVQAGGSLRLSCAASGFTFKYYVMGSYRQAPGKERFVAAITGSGASTYYADSVKGRFTISRDNAKNTVFLQMNSLKPEETAVYYCNADYYAGRYRYDYWGQGTQVTVSS
  polyreactivity (PSR sort gate): high polyreactivity

## QVQLVESGGGLVQAGGSLRLSCAASGFIFDYYAMGWYRQAPGKEREFVAAITWDGGSTYYADSVKGRFTISRDNAKNTVYLQMNSLKPEDTAVYYRAAETWGEYGYWGQGTQVTVSS
  polyreactivity (PSR sort gate): low polyreactivity

## QVQLVESGGGLVQAGGSLRLSCSASGLTLKRYAMGWYRQAPGQERELVAAISKSGGSTYYADSVKGRFTISRDNAKNTVYLQMNSLKPEDTAVYYCAADSYNLWDDYWGQGTQVTVSS
  polyreactivity (PSR sort gate): low polyreactivity

## QVQLVESGGGLVQAGGSLRLSCAASGSTFDAYAMGWYIQAPGKERELVAAITNGGSTNYADSVKGRFTISRDNAKNTVYLQMNSLQPEDTAVYYCNAQHRTVRGIFGRFNYWGQGTQVTVSS
  polyreactivity (PSR sort gate): low polyreactivity

## QVQLEESGGRLVQAGGSLRLSCAASGSIIGRYTMGWYRQAPGKERELVAAISGSGGSTYYADSVKGRFTISRDNAKNSVYFQMYSLKPEDTAVYYCAAYYYGRYLMVYWGQGTQVTVAS
  polyreactivity (PSR sort gate): high polyreactivity

## QVQLVESGGGLVQAGGSLRLSCAASGRTFSGYAMGWYRQAPGKERELVAAIDRGDGTNYADSVKGRFTISRDNAKNTVYLQMNSLKPEDTAVYYCAADDYWTPFGYWGQGTQVTVSS
  polyreactivity (PSR sort gate): low polyreactivity

## QVQLVESGGGLVQAGGSLRLSFSASGSTFTSNAMGWYRQAPGKERELVASISGSGGRTYYADSVKGRFTISRDNAKNTVYLQMNSLKPEDTAVYYCNAESRNLYSTQFDYWGQGTQVTVSS
  polyreactivity (PSR sort gate): low polyreactivity

## QVQLVESGGGLVQARGSLRLSCAASGSTFDLYAMGWYRQAPGKEREFVAAISSSGGTTYNADSVKGRFTSSRDNAKKTVYLQRKSLKPEDTAVYYCAAVRYYESRGGYDYWGQGTQVTVSS
  polyreactivity (PSR sort gate): low polyreactivity

## QVQLVESGGGLVQAGGSLRLSCAASGSTFWGYAMGWYRQAPGKERELVAAITSGGRTDYADSVKGRFTISRHNAKNTVYLQMNSRKPEDTAVYYCNAYLYYYRYHYNYWGQGTQVTVSS
  polyreactivity (PSR sort gate): low polyreactivity

## QVQLVESGGGLVQAGGSLRLSCAASGSTFYINAMGWYRQAPGKERVLVAAISWSGGSTYYADSVKGRFTISRDNAKNTVYLQMNSLKPEDTAVYYCAADWYLGWSLDYDYWGQGTQVTVSS
  polyreactivity (PSR sort gate): low polyreactivity

## QVQLVESGGGLVQAGGSLRLSCAASGRIFRQYAMGLYRQAPGKERELVAAISRRGTSTYYADSVKGRFTISRDNAKNTVYLQMNSLKPEDTAVYYCAAGGVYSIYRTSRVGYDYWGQGTQVTVSS
  polyreactivity (PSR sort gate): high polyreactivity

## QVQLVESGGGLVQAGGSLRLSCAASGFIFSSYAMGWYRQAPGKERELVAVITRSGRRTYYADSVKGRFTISRDNAKNTVYLQMNSLKPEDTAVYYCNATLPNEVAPNDYWGQGTQVTVSS
  polyreactivity (PSR sort gate): high polyreactivity

## QVQLVESGGGLVPAGGSLRLSCAASGFIFSRYDMGCYRQAPGKERELVAAIDWSGDSTYYADSVKGRFTISRDNAKNTVYFQMNSLKPEDTAVYYCAAGQDGDSDWGQGTQVTVSS
  polyreactivity (PSR sort gate): low polyreactivity

## QVQLVESGGGLVQAGGSLRLSCAASGSTFINYAMGWYRQAPGKERELVAAISKGGGSTYYADSVKGRFTISRDNAKNTVYLQMTSLKPEDTAVYYCAATGRAGAGKRKYEYWGQGTQVTVSS
  polyreactivity (PSR sort gate): high polyreactivity
